Experimental data: article PMC3514286 (PLoS ONE, 2012)

T1: GroES L27A mutant (E. coli, UniProt P0A6F9 1-97, L27A)
T1 sequence: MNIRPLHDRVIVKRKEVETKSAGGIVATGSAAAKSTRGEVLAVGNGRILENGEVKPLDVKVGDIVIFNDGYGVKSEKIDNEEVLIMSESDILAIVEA

T2: GroES (E. coli, UniProt P0A6F9 1-97)
T2 sequence: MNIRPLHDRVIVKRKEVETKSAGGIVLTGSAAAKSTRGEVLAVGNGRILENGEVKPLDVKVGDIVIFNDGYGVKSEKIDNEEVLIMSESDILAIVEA


How the values were obtained:
mHsp10 L33A mutant = mHsp10 L33A mutant (human, UniProt P61604 1-102, L33A); test: cell-based or functional assay
Sequence of mHsp10 L33A mutant (P61604 whole entry L33A): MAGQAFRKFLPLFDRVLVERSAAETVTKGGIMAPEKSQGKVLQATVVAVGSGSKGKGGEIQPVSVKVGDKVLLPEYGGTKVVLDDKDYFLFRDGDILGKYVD

GroES L27A mutant = biological target: T1, GroES L27A mutant; test: cell-based or functional assay
GroES [1] = biological target: T2, GroES; test: cell-based or functional assay
[2] = biological target: mitochondrial Hsp10, hexa-histidine-tagged (human, UniProt P61604 1-102); test: cell-based or functional assay
Sequence of mitochondrial Hsp10, hexa-histidine-tagged (P61604 whole entry): as the sequence (P61604 whole entry L33A) above, with A33L counted along it

GroES [3] = biological target: T2, GroES; test: SPR; ProteOn XPR36; GroES or mHsp10 immobilised by amine coupling on a GLC chip; six concentrations of each mHsp60 variant injected; 20 mM Na-HEPES pH 7.5, 100 mM KCl, 10 mM MgCl2, 0.005% Tween, 2 mM ATP; apparent constants from equilibrium analysis; details: both partners purified

Binder | inhibition of the chaperonin's steady-state ATPase activity by co-chaperonin (2:1 co-chaperonin:chaperonin) (mHsp10 L33A mutant) | inhibition of the chaperonin's steady-state ATPase activity by co-chaperonin (2:1 co-chaperonin:chaperonin) (GroES L27A mutant) | inhibition of the chaperonin's steady-state ATPase activity by co-chaperonin (2:1 co-chaperonin:chaperonin) (GroES [1]) | inhibition of the chaperonin's steady-state ATPase activity by co-chaperonin (2:1 co-chaperonin:chaperonin) [2] | KA ratio (apparent KA relative to that of mHsp60 and mHsp10) (GroES [3])
human mitochondrial Hsp60, wild type (natural protein, UniProt P10809 27-573, looked up) AKDVKFGADARALMLQGVDLLADAVAVTMGPKGRTVIIEQSWGSPKVTKDGVTVAKSIDLKDKYKNIGAKLVQDVANNTNEEAGDGTTTATVLARSIAKEGFEKISKGANPVEIRRGVMLAVDAVIAELKKQSKPVTTPEEIAQVATISANGDKEIGNIISDAMKKVGRKGVITVKDGKTLNDELEIIEGMKFDRGYISPYFINTSKGQKCEFQDAYVLLSEKKISSIQSIVPALEIANAHRKPLVIIAEDVDGEALSTLVLNRLKVGLQVVAVKAPGFGDNRKNQLKDMAIATGGAVFGEEGLTLNLEDVQPHDLGKVGEVIVTKDDAMLLKGKGDKAQIEKRIQEIIEQLDVTTSEYEKEKLNERLAKLSDGVAVLKVGGTSDVEVNEKKDRVTDALNATRAAVEEGIVLGGGCALLRCIPALDSLTPANEDQKIGIEIIKRTLKIPAMTIAKNAGVEGSLIVEKIMQSSSEVGYDAMAGDFVNMVEKGIIDPTKVVRTALLDAAGVASLLTTAEVVVTEIPKEEKDPGMGAMGGMGGGMGGGMF | 0% | 0% | 0% |  | 
human mitochondrial Hsp60 R264K/E358K double mutant (natural protein, UniProt P10809 27-573, looked up, human mitochondrial Hsp60 with R264K and E358K, isolated from an error-prone PCR library; also called R264K/E358K mHsp60; source: expressed in bacteria, purified as oligomers) AKDVKFGADARALMLQGVDLLADAVAVTMGPKGRTVIIEQSWGSPKVTKDGVTVAKSIDLKDKYKNIGAKLVQDVANNTNEEAGDGTTTATVLARSIAKEGFEKISKGANPVEIRRGVMLAVDAVIAELKKQSKPVTTPEEIAQVATISANGDKEIGNIISDAMKKVGRKGVITVKDGKTLNDELEIIEGMKFDRGYISPYFINTSKGQKCEFQDAYVLLSEKKISSIQSIVPALEIANAHRKPLVIIAEDVDGEALSTLVLNKLKVGLQVVAVKAPGFGDNRKNQLKDMAIATGGAVFGEEGLTLNLEDVQPHDLGKVGEVIVTKDDAMLLKGKGDKAQIEKRIQEIIEQLDVTTSKYEKEKLNERLAKLSDGVAVLKVGGTSDVEVNEKKDRVTDALNATRAAVEEGIVLGGGCALLRCIPALDSLTPANEDQKIGIEIIKRTLKIPAMTIAKNAGVEGSLIVEKIMQSSSEVGYDAMAGDFVNMVEKGIIDPTKVVRTALLDAAGVASLLTTAEVVVTEIPKEEKDPGMGAMGGMGGGMGGGMF | 40% | 0% | 47% | 48% | 
human mitochondrial Hsp60 E321K mutant (natural protein, UniProt P10809 27-573, looked up, human mitochondrial Hsp60 with E321K, isolated from an error-prone PCR library; also called E321K mHsp60; source: expressed in bacteria, purified as oligomers) AKDVKFGADARALMLQGVDLLADAVAVTMGPKGRTVIIEQSWGSPKVTKDGVTVAKSIDLKDKYKNIGAKLVQDVANNTNEEAGDGTTTATVLARSIAKEGFEKISKGANPVEIRRGVMLAVDAVIAELKKQSKPVTTPEEIAQVATISANGDKEIGNIISDAMKKVGRKGVITVKDGKTLNDELEIIEGMKFDRGYISPYFINTSKGQKCEFQDAYVLLSEKKISSIQSIVPALEIANAHRKPLVIIAEDVDGEALSTLVLNRLKVGLQVVAVKAPGFGDNRKNQLKDMAIATGGAVFGEEGLTLNLEDVQPHDLGKVGKVIVTKDDAMLLKGKGDKAQIEKRIQEIIEQLDVTTSEYEKEKLNERLAKLSDGVAVLKVGGTSDVEVNEKKDRVTDALNATRAAVEEGIVLGGGCALLRCIPALDSLTPANEDQKIGIEIIKRTLKIPAMTIAKNAGVEGSLIVEKIMQSSSEVGYDAMAGDFVNMVEKGIIDPTKVVRTALLDAAGVASLLTTAEVVVTEIPKEEKDPGMGAMGGMGGGMGGGMF | 26% | 0% | 30% |  | 1.43 ratio
